From the Immune Epitope Database (IEDB)
pIC50, pKd: −log10 of the molar value.

Experiments:
[1] = biological target: HLA-B*44:02; experiment: IEDB peptide-MHC binding, purified MHC/competitive/radioactivity; filed as Kd, often an IC50 or EC50 that approximates it; ≥ and ≤ were set here for values at or beyond the usual limits of such assays
[2] = biological target: HLA-B*44:03; experiment: as above
[3] = biological target: HLA-A*30:01; experiment: as above
[4] = biological target: HLA-A*26:01; experiment: as above
[5] = biological target: HLA-A*02:01; experiment: IEDB peptide-MHC binding, purified MHC/direct/fluorescence; filed as Kd, often an IC50 or EC50 that approximates it; ≥ and ≤ were set here for values at or beyond the usual limits of such assays
[6] = biological target: HLA-A*69:01; experiment: as above
[7] = biological target: HLA-A*02:01; experiment: IEDB peptide-MHC binding, purified MHC/competitive/fluorescence; filed as Kd, often an IC50 or EC50 that approximates it; ≥ and ≤ were set here for values at or beyond the usual limits of such assays; conditions: source organism: Variola virus
[8] = biological target: HLA-A*02:01; experiment: IEDB peptide-MHC binding, purified MHC/competitive/fluorescence; ≥ and ≤ were set here for values at or beyond the usual limits of such assays
[9] = biological target: HLA-A*24:02; experiment: IEDB peptide-MHC binding, purified MHC/competitive/radioactivity; filed as Kd, often an IC50 or EC50 that approximates it; ≥ and ≤ were set here for values at or beyond the usual limits of such assays; conditions: source organism: Dengue virus 2 Jamaica/1409/1983
[10] = biological target: HLA-A*03:01; experiment: IEDB peptide-MHC binding, purified MHC/direct/fluorescence; filed as Kd, often an IC50 or EC50 that approximates it; ≥ and ≤ were set here for values at or beyond the usual limits of such assays
[11] = biological target: HLA-A*31:01; experiment: as above; conditions: source organism: SARS-CoV1
[12] = biological target: HLA-B*15:01; experiment: as above
[13] = biological target: HLA-B*07:02; experiment: as above; conditions: source organism: Hepacivirus hominis
[14] = biological target: HLA-A*33:01; experiment: IEDB peptide-MHC binding, purified MHC/competitive/radioactivity; filed as Kd, often an IC50 or EC50 that approximates it; ≥ and ≤ were set here for values at or beyond the usual limits of such assays; conditions: source organism: SARS coronavirus Tor2
[15] = biological target: HLA-A*68:01; experiment: as above; conditions: source organism: SARS coronavirus Tor2
[16] = biological target: HLA-A*01:01; experiment: as above; conditions: source organism: Dengue virus 4 Dominica/814669/1981
[17] = biological target: HLA-A*11:01; experiment: IEDB peptide-MHC binding, purified MHC/direct/fluorescence; filed as Kd, often an IC50 or EC50 that approximates it; ≥ and ≤ were set here for values at or beyond the usual limits of such assays; conditions: source organism: Homo sapiens
[18] = biological target: HLA-A*02:02; experiment: IEDB peptide-MHC binding, purified MHC/competitive/radioactivity; filed as Kd, often an IC50 or EC50 that approximates it; ≥ and ≤ were set here for values at or beyond the usual limits of such assays
[19] = biological target: HLA-A*02:03; experiment: as above
[20] = biological target: HLA-A*02:06; experiment: as above
[21] = biological target: HLA-B*27:05; experiment: IEDB peptide-MHC binding, purified MHC/direct/fluorescence; filed as Kd, often an IC50 or EC50 that approximates it; ≥ and ≤ were set here for values at or beyond the usual limits of such assays; conditions: source organism: Mycobacterium tuberculosis
[22] = source organism: Dengue virus 4 Philippines/H241/1956
[23] = source organism: Dengue virus 2 Jamaica/1409/1983
[24] = source organism: Vaccinia virus WR
[25] = source organism: Cryptosporidium hominis
[26] = source organism: Sudan ebolavirus
[27] = source organism: Mycobacterium tuberculosis
[28] = source organism: Dengue virus 1 Brazil/97-11/1997
[29] = source organism: Giardia lamblia ATCC 50803
[30] = source organism: Zaire ebolavirus
[31] = source organism: Dengue virus 1 Singapore/S275/1990
[32] = source organism: Bacillus thuringiensis
[33] = source organism: Mammarenavirus lassaense

**Q.** How did the pKd [1, 22] turn out when IESSKNQTW was run?
**A.** The pKd was 6.87.

**Q.** What about the pKd [2, 22] of the same sequence?
**A.** The pKd was 6.80.

**Q.** With SRNSTHEMYW as the sequence, how does the pKd [1, 23] read?
**A.** The pKd was 5.20.

**Q.** And the pKd [2, 23]?
**A.** Its pKd is 5.86.

**Q.** With RTHFSQPSG as the sequence, how does the pKd [3, 24] read?
**A.** Its pKd is 7.84.

**Q.** How did the pKd [3, 24] turn out when RVSVSAILL was run?
**A.** The pKd was 7.83.

**Q.** How did the pKd [4, 22] turn out when STPQGLVKRF was run?
**A.** The pKd was 6.34.

**Q.** With FQWSDDPFI as the sequence, how does the pKd [5, 25] read?
**A.** The pKd was 8.14.

**Q.** And the pKd [6, 25]?
**A.** The pKd was at most 4.70.

**Q.** DIRTLLPILL was tested. Which pKd [7] did it give?
**A.** Its pKd is 6.13.

**Q.** With LLWFNYLFG as the sequence, how does the pIC50 ([8]; source organism: Variola virus) read?
**A.** Its pIC50 is at most 3.49.

**Q.** PMVHSTFLI was tested. Which pKd ([5]; source organism: Homo sapiens) did it give?
**A.** The pKd was 5.61.

**Q.** With WYAQIQPHWI as the sequence, how does the pKd [9] read?
**A.** The pKd was 7.31.

**Q.** With WVIILFQKA as the sequence, how does the pIC50 [8, 26] read?
**A.** Its pIC50 is at most 3.47.

**Q.** With LVPKNSPGM as the sequence, how does the pIC50 [8, 26] read?
**A.** Its pIC50 is 4.75.

**Q.** How did the pKd ([5]; source organism: SARS-CoV1) turn out when KMSEYKGPV was run?
**A.** Its pKd is 5.82.

**Q.** And the pKd ([10]; source organism: SARS-CoV1)?
**A.** Its pKd is 4.97.

**Q.** What about the pKd [11] of the same sequence?
**A.** Its pKd is 5.68.

**Q.** And the pKd ([12]; source organism: SARS-CoV1)?
**A.** Its pKd is 5.18.

**Q.** How did the pKd [3, 24] turn out when HVKAFYKFI was run?
**A.** The pKd was 9.46.

**Q.** How did the pKd ([4]; source organism: Dengue virus 2 Peru/IQT2913/1996) turn out when ETLGEKWKNR was run?
**A.** Its pKd is 4.84.

**Q.** GAAGARGAL was tested. Which pKd [13] did it give?
**A.** The pKd was 7.89.

**Q.** With LLWAFAHRQ as the sequence, how does the pKd [5, 27] read?
**A.** The pKd was 6.26.

**Q.** And the pKd [6, 27]?
**A.** Its pKd is at most 4.70.

**Q.** How did the pKd [4, 28] turn out when TVIALFLAH was run?
**A.** Its pKd is 4.91.

**Q.** How did the pKd [5, 29] turn out when LMQDCAIKA was run?
**A.** Its pKd is 7.09.

**Q.** What about the pKd [6, 29] of the same sequence?
**A.** The pKd was at most 4.70.

**Q.** With KYKQSNTNK as the sequence, how does the pKd [3, 24] read?
**A.** The pKd was 6.99.

**Q.** How did the pKd [1, 23] turn out when SEMIIPKNF was run?
**A.** Its pKd is 7.97.

**Q.** And the pKd [2, 23]?
**A.** Its pKd is 7.89.

**Q.** RMMASSMSQ was tested. Which pKd ([10]; source organism: Bacillus cereus) did it give?
**A.** The pKd was at most 4.70.

**Q.** RASGSYISG was tested. Which pKd [3, 24] did it give?
**A.** Its pKd is 6.23.

**Q.** ETLGEKWKSR was tested. Which pKd [4, 23] did it give?
**A.** The pKd was 4.84.

**Q.** With MDYHKILTA as the sequence, how does the pIC50 [8, 30] read?
**A.** The pIC50 was at most 3.94.

**Q.** How did the pKd [11] turn out when KVIQPRVEK was run?
**A.** The pKd was 6.37.

**Q.** And the pKd [14]?
**A.** The pKd was 5.13.

**Q.** And the pKd [15]?
**A.** Its pKd is 6.05.

**Q.** How did the pKd [6, 31] turn out when SMVNGVVKL was run?
**A.** The pKd was at most 4.70.

**Q.** How did the pKd [16] turn out when LTASLVMLL was run?
**A.** The pKd was 5.72.

**Q.** With TTLATISTS as the sequence, how does the pIC50 [8, 30] read?
**A.** Its pIC50 is 5.18.

**Q.** With ENSSAMVQV as the sequence, how does the pIC50 [8, 30] read?
**A.** The pIC50 was at most 3.56.

**Q.** With KNRNSKRSV as the sequence, how does the pKd [3, 24] read?
**A.** The pKd was 7.49.

**Q.** With KLSSLGLNAV as the sequence, how does the pIC50 ([8]; source organism: Hepatitis C virus subtype 1b) read?
**A.** The pIC50 was 7.60.

**Q.** How did the pIC50 [8, 30] turn out when QVNNLEEIC was run?
**A.** The pIC50 was at most 3.95.

**Q.** LDPIPYDPKF was tested. Which pKd [9] did it give?
**A.** The pKd was 5.62.

**Q.** How did the pIC50 [8, 26] turn out when IKKPDGSEC was run?
**A.** The pIC50 was at most 3.50.

**Q.** ALTAGAGAY was tested. Which pKd ([12]; source organism: Mycobacterium tuberculosis str. Haarlem) did it give?
**A.** The pKd was 6.35.

**Q.** RDKRSVALA was tested. Which pKd [3, 28] did it give?
**A.** The pKd was 5.70.

**Q.** How did the pKd [3, 23] turn out when RKKARSTPFN was run?
**A.** The pKd was 5.42.

**Q.** With KTKRYLPAI as the sequence, how does the pKd [3, 23] read?
**A.** The pKd was 7.00.

**Q.** How did the pKd [3, 23] turn out when VVRLLTKPWD was run?
**A.** The pKd was 5.42.

**Q.** With NVRYVFLYK as the sequence, how does the pKd [3, 24] read?
**A.** Its pKd is 8.00.

**Q.** With GTIGAVSLDF as the sequence, how does the pKd [4, 23] read?
**A.** The pKd was 6.34.

**Q.** How did the pKd [17] turn out when STEIGLLVG was run?
**A.** Its pKd is 4.91.

**Q.** How did the pKd [18, 24] turn out when SISSVLTIL was run?
**A.** The pKd was 8.90.

**Q.** What about the pKd [19, 24] of the same sequence?
**A.** Its pKd is 8.40.

**Q.** What about the pKd [20, 24] of the same sequence?
**A.** The pKd was 6.96.

**Q.** How did the pKd [5, 32] turn out when ELGGGFGTL was run?
**A.** The pKd was 5.15.

**Q.** What about the pKd [6, 32] of the same sequence?
**A.** The pKd was 6.17.

**Q.** KVRKIISKI was tested. Which pKd [3, 24] did it give?
**A.** Its pKd is 7.57.

**Q.** GLVRALTAF was tested. Which pKd ([12]; source organism: Mycobacterium tuberculosis variant bovis BCG str. Pasteur 1173P2) did it give?
**A.** Its pKd is 6.59.

**Q.** How did the pKd [21] turn out when FRWDYIPPT was run?
**A.** Its pKd is 6.48.

**Q.** What does the source list for NEGIMAVGI?
**A.** pKd [1, 31]: 7.32; pKd [2, 31]: 6.80

**Q.** Which results are given for LLMEGLKLLS?
**A.** pKd [18, 33]: 7.11; pKd [19, 33]: 7.40; pKd [20, 33]: 5.76

**Q.** With SAVNMTSRM as the sequence, how does the pKd [4, 28] read?
**A.** The pKd was 5.91.

**Q.** With GVATDVPSA as the sequence, how does the pIC50 [8, 30] read?
**A.** The pIC50 was 5.84.

**Q.** What does the source list for STSNVITDQT?
**A.** pKd [18, 24]: ≤ 4.27; pKd [19, 24]: ≤ 4.15; pKd [20, 24]: 4.97
